For 1 substance, average level of replacement of Tm in reconstituted myofibrils results are on record in article PMC2704292.

In this test the target is actin of the thin filaments of rabbit psoas myofibrils (rabbit (endogenous in psoas myofibrils)) (UniProt P68135). The experiment in a line: co-sedimentation.

Consider “rabbit fast skeletal tropomyosin (from UniProt P58772 1-284; P58776 1-284) (natural protein)”, for which the average level of replacement of Tm in reconstituted myofibrils came out at 96%.
